These results are taken from publication PMC5503505 (Nature structural & molecular biology, 2017).

Sequences and labels used below:
T1: Mcm4 (S. cerevisiae, UniProt P30665 1-933)
T1 sequence: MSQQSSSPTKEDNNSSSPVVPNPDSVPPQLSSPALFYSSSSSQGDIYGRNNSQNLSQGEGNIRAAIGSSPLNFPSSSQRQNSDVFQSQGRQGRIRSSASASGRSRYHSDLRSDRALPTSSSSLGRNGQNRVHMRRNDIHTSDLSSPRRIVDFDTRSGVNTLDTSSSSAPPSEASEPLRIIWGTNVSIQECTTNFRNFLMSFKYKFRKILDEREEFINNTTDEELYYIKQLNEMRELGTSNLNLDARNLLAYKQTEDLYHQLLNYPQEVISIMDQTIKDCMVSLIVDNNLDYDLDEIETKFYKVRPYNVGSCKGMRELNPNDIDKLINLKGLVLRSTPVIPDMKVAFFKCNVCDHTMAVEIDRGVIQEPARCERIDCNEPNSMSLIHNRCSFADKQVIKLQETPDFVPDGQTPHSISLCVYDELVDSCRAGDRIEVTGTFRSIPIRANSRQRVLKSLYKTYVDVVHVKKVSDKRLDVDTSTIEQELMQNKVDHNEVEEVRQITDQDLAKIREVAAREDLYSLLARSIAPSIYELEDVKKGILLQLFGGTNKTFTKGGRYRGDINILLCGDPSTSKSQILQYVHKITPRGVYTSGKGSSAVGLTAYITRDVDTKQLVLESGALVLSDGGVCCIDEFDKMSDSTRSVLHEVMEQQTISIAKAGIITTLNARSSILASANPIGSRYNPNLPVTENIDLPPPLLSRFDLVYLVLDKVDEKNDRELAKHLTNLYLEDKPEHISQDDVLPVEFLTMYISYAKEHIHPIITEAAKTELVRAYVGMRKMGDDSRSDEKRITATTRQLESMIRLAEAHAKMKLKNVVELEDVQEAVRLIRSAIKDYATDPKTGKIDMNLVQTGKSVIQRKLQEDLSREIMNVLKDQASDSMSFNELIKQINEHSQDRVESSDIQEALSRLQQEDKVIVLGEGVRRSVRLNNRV

B1: Mcm7 (natural protein)
chain: MSAALPSIQLPVDYNNLFNEITDFLVTFKQDTLSSDATRNENEDENLDAENIEQHLLEKGPKYMAMLQKVANRELNSVIIDLDDILQYQNEKFLQGTQADDLVSAIQQNANHFTELFCRAIDNNMPLPTKEIDYKDDVLDVILNQRRLRNERMLSDRTNEIRSENLMDTTMDPPSSMNDALREVVEDETELFPPNLTRRYFLYFKPLSQNCARRYRKKAISSKPLSVRQIKGDFLGQLITVRGIITRVSDVKPAVEVIAYTCDQCGYEVFQEVNSRTFTPLSECTSEECSQNQTKGQLFMSTRASKFSAFQECKIQELSQQVPVGHIPRSLNIHVNGTLVRSLSPGDIVDVTGIFLPAPYTGFKALKAGLLTETYLEAQFVRQHKKKFASFSLTSDVEERVMELITSGDVYNRLAKSIAPEIYGNLDVKKALLLLLVGGVDKRVGDGMKIRGDINVCLMGDPGVAKSQLLKAICKISPRGVYTTGKGSSGVGLTAAVMKDPVTDEMILEGGALVLADNGICCIDEFDKMDESDRTAIHEVMEQQTISISKAGINTTLNARTSILAAANPLYGRYNPRLSPLDNINLPAALLSRFDILFLMLDIPSRDDDEKLAEHVTYVHMHNKQPDLDFTPVEPSKMREYIAYAKTKRPVMSEAVNDYVVQAYIRLRQDSKREMDSKFSFGQATPRTLLGIIRLSQALAKLRLADMVDIDDVEEALRLVRVSKESLYQETNKSKEDESPTTKIFTIIKKMLQETGKNTLSYENIVKTVRLRGFTMLQLSNCIQEYSYLNVWHLINEGNTLKFVDDGTMDTDQEDSLVSTPKLAPQTTASANVSAQDSDIDLQDA
B2: Orc4 (natural protein)
chain: MTISEARLSPQVNLLPIKRHSNEEVEETAAILKKRTIDNEKCKDSDPGFGSLQRRLLQQLYGTLPTDEKIIFTYLQDCQQEIDRIIKQSIIQKESHSVILVGPRQSYKTYLLDYELSLLQQSYKEQFITIRLNGFIHSEQTAINGIATQLEQQLQKIHGSEEKIDDTSLETISSGSLTEVFEKILLLLDSTTKTRNEDSGEVDRESITKITVVFIFDEIDTFAGPVRQTLLYNLFDMVEHSRVPVCIFGCTTKLNILEYLEKRVKSRFSQRVIYMPQIQNLDDMVDAVRNLLTVRSEISPWVSQWNETLEKELSDPRSNLNRHIRMNFETFRSLPTLKNSIIPLVATSKNFGSLCTAIKSCSFLDIYNKNQLSNNLTGRLQSLSDLELAILISAARVALRAKDGSFNFNLAYAEYEKMIKAINSRIPTVAPTTNVGTGQSTFSIDNTIKLWLKKDVKNVWENLVQLDFFTEKSAVGLRDNATAAFYASNYQFQGTMIPFDLRSYQMQIILQELRRIIPKSNMYYSWTQL
B3: Orc1 (natural protein)
chain: MAKTLKDLQGWEIITTDEQGNIIDGGQKRLRRRGAKTEHYLKRSSDGIKLGRGDSVVMHNEAAGTYSVYMIQELRLNTLNNVVELWALTYLRWFEVNPLAHYRQFNPDANILNRPLNYYNKLFSETANKNELYLTAELAELQLFNFIRVANVMDGSKWEVLKGNVDPERDFTVRYICEPTGEKFVDINIEDVKAYIKKVEPREAQEYLKDLTLPSKKKEIKRGPQKKDKATQTAQISDAETRATDITDNEDGNEDESSDYESPSDIDVSEDMDSGEISADELEEEEDEEEDEDEEEKEARHTNSPRKRGRKIKLGKDDIDASVQPPPKKRGRKPKDPSKPRQMLLISSCRANNTPVIRKFTKKNVARAKKKYTPFSKRFKSIAAIPDLTSLPEFYGNSSELMASRFENKLKTTQKHQIVETIFSKVKKQLNSSYVKEEILKSANFQDYLPARENEFASIYLSAYSAIESDSATTIYVAGTPGVGKTLTVREVVKELLSSSAQREIPDFLYVEINGLKMVKPTDCYETLWNKVSGERLTWAASMESLEFYFKRVPKNKKKTIVVLLDELDAMVTKSQDIMYNFFNWTTYENAKLIVIAVANTMDLPERQLGNKITSRIGFTRIMFTGYTHEELKNIIDLRLKGLNDSFFYVDTKTGNAILIDAAGNDTTVKQTLPEDVRKVRLRMSADAIEIASRKVASVSGDARRALKVCKRAAEIAEKHYMAKHGYGYDGKTVIEDENEEQIYDDEDKDLIESNKAKDDNDDDDDNDGVQTVHITHVMKALNETLNSHVITFMTRLSFTAKLFIYALLNLMKKNGSQEQELGDIVDEIKLLIEVNGSNKFVMEIAKTLFQQGSDNISEQLRIISWDFVLNQLLDAGILFKQTMKNDRICCVKLNISVEEAKRAMNEDETLRNL
B4: Cdt1 (natural protein)
chain: MSGTANSRRKEVLRVPVIDLNRVSDEEQLLPVVRAILLQHDTFLLKNYANKAVLDALLAGLTTKDLPDTSQGFDANFTGTLPLEDDVWLEQYIFDTDPQLRFDRKCRNESLCSIYSRLFKLGLFFAQLCVKSVVSSAELQDCISTSHYATKLTRYFNDNGSTHDGADAGATVLPTGDDFQYLFERDYVTFLPTGVLTIFPCAKAIRYKPSTMATTDNSWVSIDEPDCLLFHTGTLLARWSQGMHTTSPLQIDPRANIVSLTIWPPLTTPISSKGEGTIANHLLEQQIKAFPKVAQQYYPRELSILRLQDAMKFVKELFTVCETVLSLNALSRSTGVPPELHVLLPQISSMMKRKIVQDDILKLLTIWSDAYVVELNSRGELTMNLPKRDNLTTLTNKSRTLAFVERAESWYQQVIASKDEIMTDVPAFKINKRRSSSNSKTVLSSKVQTKSSNANALNNSRYLANSKENFMYKEKMPDSQANLMDRLRERERRSAALLSQRQKRYQQFLAMKMTQVFDILFSLTRGQPYTETYLSSLIVDSLQDSNNPIGTKEASEILAGLQGILPMDISVHQVDGGLKVYRWNSLDKNRFSKLLQIHKSKQQD

Holding throughout (test): cryo-EM structure
The target of test [1] is Mcm3 (S. cerevisiae, UniProt P24279 1-971).
Test [2] deals with T1, Mcm4.
Test [3] addresses B4.
Test [4] concerns the target Mcm6 (S. cerevisiae, UniProt P53091 1-1017).
The target of test [5] is B3.

Mcm6, sequence (P53091 whole entry): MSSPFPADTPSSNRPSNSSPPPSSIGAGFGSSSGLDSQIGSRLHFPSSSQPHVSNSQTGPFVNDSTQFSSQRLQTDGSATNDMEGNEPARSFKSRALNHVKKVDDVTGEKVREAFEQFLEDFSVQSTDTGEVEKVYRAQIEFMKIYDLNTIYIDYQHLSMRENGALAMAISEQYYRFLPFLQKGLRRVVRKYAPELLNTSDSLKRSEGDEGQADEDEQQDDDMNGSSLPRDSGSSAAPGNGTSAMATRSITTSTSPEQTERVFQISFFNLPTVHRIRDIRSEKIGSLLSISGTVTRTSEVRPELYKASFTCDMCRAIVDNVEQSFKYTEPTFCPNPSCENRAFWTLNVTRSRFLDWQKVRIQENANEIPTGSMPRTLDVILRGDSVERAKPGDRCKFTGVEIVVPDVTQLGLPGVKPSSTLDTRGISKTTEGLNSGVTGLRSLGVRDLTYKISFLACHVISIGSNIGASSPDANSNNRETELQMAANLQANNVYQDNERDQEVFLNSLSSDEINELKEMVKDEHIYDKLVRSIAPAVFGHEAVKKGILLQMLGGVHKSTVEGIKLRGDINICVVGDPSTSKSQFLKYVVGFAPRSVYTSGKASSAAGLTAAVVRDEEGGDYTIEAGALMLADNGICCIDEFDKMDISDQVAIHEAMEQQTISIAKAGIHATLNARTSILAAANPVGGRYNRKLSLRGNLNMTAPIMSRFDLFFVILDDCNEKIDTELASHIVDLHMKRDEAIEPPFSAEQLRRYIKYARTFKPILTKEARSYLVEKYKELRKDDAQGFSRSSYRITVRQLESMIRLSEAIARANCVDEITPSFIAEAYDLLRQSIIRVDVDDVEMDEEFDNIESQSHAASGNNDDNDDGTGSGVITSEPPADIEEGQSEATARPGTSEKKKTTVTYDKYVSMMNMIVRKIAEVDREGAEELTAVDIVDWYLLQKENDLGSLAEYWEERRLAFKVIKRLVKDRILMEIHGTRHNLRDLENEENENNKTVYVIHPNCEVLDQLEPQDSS
Mcm3, sequence (P24279 whole entry): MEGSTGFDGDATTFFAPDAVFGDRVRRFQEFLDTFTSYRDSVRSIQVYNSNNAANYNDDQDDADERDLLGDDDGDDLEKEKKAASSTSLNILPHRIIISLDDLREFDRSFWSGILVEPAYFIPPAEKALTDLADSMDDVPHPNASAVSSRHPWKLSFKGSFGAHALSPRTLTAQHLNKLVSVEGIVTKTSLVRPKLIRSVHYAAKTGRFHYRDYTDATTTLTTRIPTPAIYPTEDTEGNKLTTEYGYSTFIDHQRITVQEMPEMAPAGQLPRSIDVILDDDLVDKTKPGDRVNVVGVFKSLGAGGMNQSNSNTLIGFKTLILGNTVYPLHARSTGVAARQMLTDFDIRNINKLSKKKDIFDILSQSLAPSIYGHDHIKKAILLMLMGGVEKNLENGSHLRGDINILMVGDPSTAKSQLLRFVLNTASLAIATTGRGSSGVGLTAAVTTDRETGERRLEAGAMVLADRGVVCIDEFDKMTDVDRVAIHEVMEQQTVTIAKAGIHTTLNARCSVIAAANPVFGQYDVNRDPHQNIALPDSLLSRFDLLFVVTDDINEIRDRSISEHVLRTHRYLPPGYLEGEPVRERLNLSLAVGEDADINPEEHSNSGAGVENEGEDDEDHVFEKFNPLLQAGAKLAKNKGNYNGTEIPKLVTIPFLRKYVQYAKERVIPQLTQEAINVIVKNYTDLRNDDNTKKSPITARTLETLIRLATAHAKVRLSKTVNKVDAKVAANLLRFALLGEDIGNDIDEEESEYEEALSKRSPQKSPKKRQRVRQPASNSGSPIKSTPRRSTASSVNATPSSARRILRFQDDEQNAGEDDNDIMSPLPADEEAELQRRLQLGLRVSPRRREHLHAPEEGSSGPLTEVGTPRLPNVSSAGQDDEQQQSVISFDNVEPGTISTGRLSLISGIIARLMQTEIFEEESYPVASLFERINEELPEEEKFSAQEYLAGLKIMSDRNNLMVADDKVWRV

With B1, the binding result in test [1] and in test [2] was “binds” throughout. Consider B2, for which the binding result in test [3], in test [4] and in test [5] was “binds” throughout. Regarding B3, in test [2], the binding result is on record as “binds”. For the molecule B4, the binding result in test [4] is listed as “binds”.
